Test results from the supplement of paper PMC9170038.

Tested on: MS2 coat protein
Test: apparent KD of MS2 coat protein; designed switch direction (-1 OFF switch, 1 ON switch): -1; higher = weaker reporter binding
How it was run: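 On Illumina chips, designed RNA switches with common flanks were made by stalled E. coli RNA polymerase. Titrations with SNAP-549-labelled MS2 coat protein, doubling from 0.7 or 1.5 nM to 3 µM, were done with no input, with 200 uM small-molecule ligand, or with an oligonucleotide input. Apparent KD is the median per design over clusters, from curve fits of normalised cluster fluorescence.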

[1] = Eterna round: R95, input ligand: FMN 200 uM
[2] = Eterna round: R95, input ligand: microRNA oligo, concentration not stated
[3] = Eterna round: R95, input ligand: none
[4] = input ligand: microRNA oligo, concentration not stated

Sequence: CGGCGACAUGAGGAUCACCCAUGUGAGGAUAUGACGGGAAAAGCGUGAGCAGUUUGUGUCAGAAGGCGCGUAGG [salish99_ex1_r4_081] (Eterna round: R97, puzzle: Exclusion 1)
- apparent KD of MS2 coat protein (input ligand: FMN 200 uM): 20.2 nM
- apparent KD of MS2 coat protein (input ligand: none): 28.7 nM

Sequence: CUGAUGUGAGGAUAUCUACGCCAAGUGUUUCACUUGGCGCAAGAGAAGGCACAUGAGGAUCACCCAUGUACUUC [jl-ex4-4.37 ViennaUCT mod] (Eterna round: R97, puzzle: Exclusion 4)
- apparent KD of MS2 coat protein (input ligand: FMN 200 uM): 137 nM
- apparent KD of MS2 coat protein (input ligand: none): 22.8 nM

Sequence: GGUCAAGAACAGAUCCGCGCUGCCAUUGACCGCUCAUUUACAUGAGGAUCACCCAUGUUUUUUGCUCGUCUUACUAC [Edesso] (puzzle: Sensor v3, turn-off variant 2)
- apparent KD of MS2 coat protein [1]: 20.8 nM
- apparent KD of MS2 coat protein [2]: 61.4 nM
- apparent KD of MS2 coat protein [3]: 19.3 nM

Sequence: UGUCUUGCAGGAUAUACAUGAGGAUCACCCAUGUAUAUUGAUGAGGGAGAUCUACUAGGUAGAAGGGUAAGAGA [Eternabot (L2) Solution 59] (Eterna round: R97, puzzle: Exclusion 3)
- apparent KD of MS2 coat protein (input ligand: FMN 200 uM): 45 nM
- apparent KD of MS2 coat protein (input ligand: none): 17.8 nM

Sequence: CUGCUGGAGCGUCGCUUUGGUCGUACAUGAGGAUCACCCAUGUAGGAUAUGGUAAAAUUCGCCUGCUAGAAGGAUAGAGUGGUC [salish99_ExNG3_r04_618] (Eterna round: R96, puzzle: Exclusion NG 3)
- apparent KD of MS2 coat protein (input ligand: FMN 200 uM): 142 nM
- apparent KD of MS2 coat protein [4]: 93.6 nM
- apparent KD of MS2 coat protein (input ligand: none): 78.9 nM

Sequence: ACAAUGUUAGGAUAUCUGACAACUAGCCUCGGCUAGUCGAAAGAGAAGGAACAUGAGGAUCACCCAUGUAGAUC [EX4 #71] (Eterna round: R97, puzzle: Exclusion 4)
- apparent KD of MS2 coat protein (input ligand: FMN 200 uM): 523 nM
- apparent KD of MS2 coat protein (input ligand: none): 146 nM

Sequence: GCACAGGCAGGAUAUACAUGAGGAUCACCCAUGUGAUCCCUUAAGUACAAAAGUACAAGUAGAAGGGCCUGUGC [Omei Ex3 Model Bachelor's Dilema v43] (Eterna round: R97, puzzle: Exclusion 3)
- apparent KD of MS2 coat protein (input ligand: FMN 200 uM): 21.2 nM
- apparent KD of MS2 coat protein (input ligand: none): 916 nM

Sequence: AGUACUAACACGGUUGUGUUAGUACAAUAAGCUUGUGAAACAUGAGGAUCACCCAUGUCCUCAUAAGCUCGUCUUAU [salish99_TOv2_r3_070] (puzzle: Sensor v3, turn-off variant 2)
- apparent KD of MS2 coat protein [1]: 16.1 nM
- apparent KD of MS2 coat protein [2]: 954 nM
- apparent KD of MS2 coat protein [3]: 15.1 nM

Sequence: UCACGGGAUUGAGGAUAUAUAUUAAUUUUUACAAUAGAAGGCAAAUUGUUAGUUUUUUCACUAUACAUGAGGAUCACCCAUGUU [JR_ExcBG1_Sub079] (Eterna round: R96, puzzle: Exclusion NG 1)
- apparent KD of MS2 coat protein [4]: 18.9 nM

Sequence: CGGUGCUGAGGAUAUACAUGAGGAUCACCCAUGUGUUCUAGCUAGCGUACUGGCAGAUGUAGAAGGCGGUACUG [JL-ex3-3.43 Brourd mod] (puzzle: Exclusion 3)
- apparent KD of MS2 coat protein [2]: 17.1 nM

Sequence: GUUGUUUAUGUAGGAUAUGCCUGGCGUGCCUUAGCAGAAGGACAUGAGGAUCACCCAUGUAUUGCGGUCUGCGUUCAGAUCGCU [salish99_ExNG1_r4_021] (Eterna round: R96, puzzle: Exclusion NG 1)
- apparent KD of MS2 coat protein (input ligand: FMN 200 uM): 37 nM
- apparent KD of MS2 coat protein [4]: 25.1 nM
- apparent KD of MS2 coat protein (input ligand: none): 29.6 nM

Sequence: CUCCUCAUGACGCCUAAACACAUGAGGAUCACCCAUGUACAGGCUUUUUGUCGUCUUAUAAUAAAACCGAGGAUACG [Orlaorusti] (Eterna round: R96, puzzle: Sensor v3, turn-off variant 1)
- apparent KD of MS2 coat protein (input ligand: FMN 200 uM): 17.8 nM
- apparent KD of MS2 coat protein [4]: 52.2 nM
- apparent KD of MS2 coat protein (input ligand: none): 23.2 nM

Sequence: CAUUAACAUGAGGAUCACCCAUGUGAGGAUAUGGAUACAUAAUACUACUACAUAAAUACCAGAAGGCGCAUACU [Maybaline] (puzzle: Exclusion 1)
- apparent KD of MS2 coat protein [1]: 31.4 nM
- apparent KD of MS2 coat protein [2]: 28 nM
- apparent KD of MS2 coat protein [3]: 55.1 nM

Sequence: ACGAUGACUGAAAAGUGUAAACUGACAUGAGGAUCACCCAUGUAGGAUAUGGCUACGAAAAGUAGUCAGAAGGGCAUGUCAUCA [Omei Exc(NG) 3 Av10] (Eterna round: R96, puzzle: Exclusion NG 3)
- apparent KD of MS2 coat protein (input ligand: FMN 200 uM): 14.3 nM
- apparent KD of MS2 coat protein [4]: 13.4 nM
- apparent KD of MS2 coat protein (input ligand: none): 17.1 nM

Sequence: CAUACUCAAGUCAGGAUAUACAGUCGGAUACGGGUGUAGAAGGGACAUGAGGAUCACCCAUGUAGAGAGUAAAG [EX-4 Malc #23] (puzzle: Brourd's mod of Exclusion 4)
- apparent KD of MS2 coat protein [1]: 87 nM
- apparent KD of MS2 coat protein [2]: 31.1 nM
- apparent KD of MS2 coat protein [3]: 53.8 nM

Sequence: UCGCUGCGAGGAUAUACAUGAGGAUCACCCAUGUACGGGUCCGGGUCUUCGUCUAUUGGUAGAAGGCGCAGUGA [JL Laongeedie mod 8] (puzzle: Exclusion 3)
- apparent KD of MS2 coat protein [2]: 43.6 nM

Sequence: UAUUUCAUCUAUGGGAGUAACAUGAGGAUCACCCAUGUAUGUCUUGUUUUUUGUUCGUCUAAGACUUUCUGAUCAGU [JR_SV3TOV1_Sub031] (Eterna round: R96, puzzle: Sensor v3, turn-off variant 1)
- apparent KD of MS2 coat protein (input ligand: FMN 200 uM): 39.4 nM
- apparent KD of MS2 coat protein [4]: 43.1 nM
- apparent KD of MS2 coat protein (input ligand: none): 35.6 nM

Sequence: AACCUGAGGCAAAGCUUUAGGUGUACAUGAGGAUCACCCAUGUAGGAUAUGGUAGGCAAAGCUUACCAGAAGGACAUUUAGGUU [Mat - Exclusion NG 3 - Mod of JL - D44] (Eterna round: R96, puzzle: Exclusion NG 3)
- apparent KD of MS2 coat protein (input ligand: FMN 200 uM): 81.6 nM
- apparent KD of MS2 coat protein [4]: 36.5 nM
- apparent KD of MS2 coat protein (input ligand: none): 52.1 nM

Sequence: CGGCAACAUGAGGAUCACCCAUGUUAGGAUAUCGGUGGCUGACACGAAACAGGACCGGUGAGAAGGAGUAUGGU [Eternabot (L1) Solution 2] (Eterna round: R97, puzzle: Exclusion 1)
- apparent KD of MS2 coat protein (input ligand: FMN 200 uM): 39 nM
- apparent KD of MS2 coat protein (input ligand: none): 39.2 nM

Sequence: AUUUUGUCAGGAUAUGACUAGUAGGACGAGAGUGCUACUACUUAGAAGGGACAUGAGGAUCACCCAUGUAUUCC [Bring Us a Shrubbery-09] (puzzle: Exclusion 4)
- apparent KD of MS2 coat protein [2]: 14.1 nM

Sequence: AUAAUGUGAGGAUAUCAGUCGACUAGCCUCGGCUAGUCGACUGAGAAGGUACAUGAGGAUCACCCAUGUGGUUC [E4/11-B2] (Eterna round: R97, puzzle: Exclusion 4)
- apparent KD of MS2 coat protein (input ligand: FMN 200 uM): 882 nM
- apparent KD of MS2 coat protein (input ligand: none): 429 nM

Sequence: UAAGAGUGAGGAUAUACGUCGCUGGCCCGGAUGGACGCAUGACAUGAGGAUCACCCAUGUAGAAGGCACAAAAC [Enxela Mod 14 - Jieux - Exclusion 2] (Eterna round: R97, puzzle: Exclusion 2)
- apparent KD of MS2 coat protein (input ligand: FMN 200 uM): 34.7 nM
- apparent KD of MS2 coat protein (input ligand: none): 29.7 nM

Sequence: CGCAAAAGGAAGGAUAUGCUAGACGAAAGUCUAGCAGAAGGUCCUACAUGAGGAUCACCCAUGUGUCCUAUGCG [Mat - Exclusion 6 - Eli Mod - D11] (Eterna round: R97, puzzle: Exclusion 6)
- apparent KD of MS2 coat protein (input ligand: FMN 200 uM): 63.1 nM
- apparent KD of MS2 coat protein (input ligand: none): 46.6 nM

Sequence: AGCAAGUCAGGAUAUCAAAGCAGCUAUAUGCUGCCCGGGCUUGAGAAGGGACUUGAGGAUCACCCAAGUGAUAG [Titiar] (Eterna round: R97, puzzle: Exclusion 4)
- apparent KD of MS2 coat protein (input ligand: FMN 200 uM): 101 nM
- apparent KD of MS2 coat protein (input ligand: none): 25.1 nM

Sequence: GUGUAGGCAGGAUAUACAUGAGGAUCACCCAUGUGAAUAAGAUAGAAUAAGAUAAAGUGUAGAAGGGUUAGUGU [Excluse me!!! 23 - Jieux - Exclusion 3] (puzzle: Exclusion 3)
- apparent KD of MS2 coat protein [2]: 31.7 nM

Sequence: GCGCACUAAGUGAGGAUAUCGUUUAUUUUUAGGAUCGAGAAGGCACAUGAGGAUCACCCAUGUUUGACGUGCGC [JR_BMOE4_Sub099] (puzzle: Brourd's mod of Exclusion 4)
- apparent KD of MS2 coat protein [2]: 17.9 nM

Sequence: ACAACCGGAGGAUAUACGUAUUCAUCACUCAACGCGGAACGACAUGAGGAUCACCCAUGUAGAAGGCCGAGAGU [EX2 B.24] (Eterna round: R97, puzzle: Exclusion 2)
- apparent KD of MS2 coat protein (input ligand: FMN 200 uM): 13.5 nM
- apparent KD of MS2 coat protein (input ligand: none): 16 nM

Sequence: CGUCCUCUAGUUAGGAUAUUGUCUCGGAUACGAAACAAGAAGGGACAUGAGGAUCACCCAUGUAAUGAGGACGA [Malc #30 mod 16] (puzzle: Brourd's mod of Exclusion 4)
- apparent KD of MS2 coat protein [2]: 27.3 nM

Sequence: UAACAGUAAGGAUAUCCAGAUCCAGACAUGAGGAUCACCCAUGUCAUAUACCUUUGACACGGAGAAGGUACGAAAA [EX5 A.4] (Eterna round: R97, puzzle: Exclusion 5)
- apparent KD of MS2 coat protein (input ligand: FMN 200 uM): 52.3 nM
- apparent KD of MS2 coat protein (input ligand: none): 52.2 nM

Sequence: ACAUGUUGCGCAGGAUAUGAGACACAUGAGGAUCACCCAUGUGGUUACAUGUCUUACCAAGCGUCUCAGAAGGGUGUGAACAUG [Ex NG2 #33] (Eterna round: R96, puzzle: Exclusion NG 2)
- apparent KD of MS2 coat protein (input ligand: FMN 200 uM): 36.4 nM
- apparent KD of MS2 coat protein [4]: 20.3 nM
- apparent KD of MS2 coat protein (input ligand: none): 24.7 nM

Sequence: CUAGUCCGAGGAUAUAUUAUGUGAUACAUGAGGAUCACCCAUGUUAUAUGAUGGAUGUUAGUAGAAGGCGGACUAG [Mat - Exclusion 5 - JL mod - D81] (puzzle: Exclusion 5)
- apparent KD of MS2 coat protein [1]: 86.3 nM
- apparent KD of MS2 coat protein [2]: 96.6 nM
- apparent KD of MS2 coat protein [3]: 79.3 nM

Sequence: UGUUGUCGCGUAGGAUAUGAGGAUCACCCAUAUAAAGGAUAUGAAAAGAAGGUUCUGAGGAUUACCCAGAAGGACGGGACAACU [pwkr exNG2 2xF5 2xFMN.17] (Eterna round: R96, puzzle: Exclusion NG 2)
- apparent KD of MS2 coat protein (input ligand: FMN 200 uM): 207 nM
- apparent KD of MS2 coat protein [4]: 35 nM
- apparent KD of MS2 coat protein (input ligand: none): 48.7 nM

Sequence: CGCACACAUGAGGAUCACCCAUGUGAGGAUAUCAUGCUUCGUAGUAAACUACGAAGUGUGAGAAGGCACAUGCC [Omei Ex1 D7] (Eterna round: R97, puzzle: Exclusion 1)
- apparent KD of MS2 coat protein (input ligand: FMN 200 uM): 24.2 nM
- apparent KD of MS2 coat protein (input ligand: none): 18.4 nM

Sequence: CUAAAUCAUGUAGGAUAUGCGUGGCAAAGCUAUGCAGAAGGACAUGAGGAUCACCCAUGUCAUUCCGUCUGAGAACAGACGGGA [Mat - Exclusion NG 1 - Mod of JL - D51] (Eterna round: R96, puzzle: Exclusion NG 1)
- apparent KD of MS2 coat protein (input ligand: FMN 200 uM): 172 nM
- apparent KD of MS2 coat protein [4]: 17.1 nM
- apparent KD of MS2 coat protein (input ligand: none): 22.1 nM
